Results published in PMC4337726, “A molecular basis for the differential roles of Bub1 and BubR1 in the spindle assembly checkpoint” (eLife, 2015).

B1: H6-TRX-BubR1^362–571 (domain or fragment, human, UniProt O60566 362-571, looked up)
chain: INHILSTRKPGKEEGDPLQRVQSHQQASEEKKEKMMYCKEKIYAGVGEFSFEEIRAEVFRKKLKEQREAELLTSAEKRAEMQKQIEEMEKKLKEIQTTQQERTGDQQEETMPTKETTKLQIASESQKIPGMTLSSSVCQVNCCARETSLAENIWQEQPHSKGPSVPFSIFDEFLLSEKKNKSPPADPPRVLAQRRPLAVLKTSESITSNE
notes: source: insect cells, baculovirus, purified (TALON, SEC)

How the values were obtained:
[1] = molecular target: anaphase promoting complex/cyclosome, P30260;Q9UJX3; experiment: co-immunoprecipitation (anti-Cdc27 IP), quantified Western blot; conditions: mitotic Flp-In T-REx cell lines; mean of two independent experiments; parent: 1.0; read off a plot
Mad2 = Mad2 (UniProt Q13257); experiment: co-immunoprecipitation (anti-GFP IP), quantified Western blot; conditions: mitotic Flp-In T-REx cell lines; mean of two independent experiments; parent: 1.0; read off a plot
Cdc20 = Cdc20 (UniProt Q12834); experiment: as above; conditions: mitotic Flp-In T-REx cell lines; mean of two independent experiments; parent: 1.0; read off a plot
Cdc27 = experiment: as above; conditions: mitotic Flp-In T-REx cell lines; mean of two independent experiments; parent: 1.0; read off a plot
Apc7 = experiment: as above; conditions: mitotic Flp-In T-REx cell lines; mean of two independent experiments; parent: 1.0; read off a plot
Bub3 = Bub3 (UniProt O43684); experiment: as above; conditions: mitotic Flp-In T-REx cell lines; mean of two independent experiments; parent: 1.0; read off a plot
H6-Bub1^1–409/Bub3 = molecular target: T1, H6-Bub1^1–409/Bub3 (human | , UniProt O43683 1-409; O43684 1-328); experiment: SEC; mobility shift; proteins at 15 µM, 1 hr at 20–22°C in 50 mM Tris–HCl pH 8, 150 mM KCl, 1.5 mM TCEP, 0.05% Tween20; Superose6 10/300; SDS-PAGE of fractions; conditions: both partners purified
T1 construct: Bub3, co-expressed, untagged or as Bub3-TRX; source: insect cells, co-infection and co-expression, purified (HisTrap, S200 SEC); not shown: H6, N-terminal, kept

H6-Bub1^209–409-MBP/Bub3 = molecular target: T2, H6-Bub1^209–409-MBP/Bub3 (human | , UniProt O43683 209-409; O43684 1-328); experiment: as above; conditions: both partners purified
T2 construct: Bub3, untagged, co-expressed; source: insect cells, co-expressed, purified (TALON, SEC); not shown: H6, N-terminal, kept; MBP, C-terminal, kept
T2 sequence (O43683 209-409, chain 1 of 2): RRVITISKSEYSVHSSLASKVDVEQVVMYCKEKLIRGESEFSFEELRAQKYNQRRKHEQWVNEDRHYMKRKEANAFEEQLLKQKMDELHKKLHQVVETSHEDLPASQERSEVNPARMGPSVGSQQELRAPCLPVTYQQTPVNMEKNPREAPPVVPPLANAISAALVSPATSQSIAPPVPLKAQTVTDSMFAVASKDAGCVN
T2 sequence (O43684 whole entry, chain 2 of 2): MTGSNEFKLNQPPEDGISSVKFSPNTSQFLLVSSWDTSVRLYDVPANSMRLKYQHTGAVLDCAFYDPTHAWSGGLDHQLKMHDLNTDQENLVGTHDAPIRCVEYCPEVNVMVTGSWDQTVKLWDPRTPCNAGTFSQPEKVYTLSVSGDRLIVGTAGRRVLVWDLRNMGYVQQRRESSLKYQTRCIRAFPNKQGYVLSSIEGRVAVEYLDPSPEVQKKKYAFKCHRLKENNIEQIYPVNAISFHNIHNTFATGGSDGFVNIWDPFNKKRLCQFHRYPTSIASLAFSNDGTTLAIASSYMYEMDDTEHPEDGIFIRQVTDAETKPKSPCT

Sequence of Cdc20 (Q12834 whole entry): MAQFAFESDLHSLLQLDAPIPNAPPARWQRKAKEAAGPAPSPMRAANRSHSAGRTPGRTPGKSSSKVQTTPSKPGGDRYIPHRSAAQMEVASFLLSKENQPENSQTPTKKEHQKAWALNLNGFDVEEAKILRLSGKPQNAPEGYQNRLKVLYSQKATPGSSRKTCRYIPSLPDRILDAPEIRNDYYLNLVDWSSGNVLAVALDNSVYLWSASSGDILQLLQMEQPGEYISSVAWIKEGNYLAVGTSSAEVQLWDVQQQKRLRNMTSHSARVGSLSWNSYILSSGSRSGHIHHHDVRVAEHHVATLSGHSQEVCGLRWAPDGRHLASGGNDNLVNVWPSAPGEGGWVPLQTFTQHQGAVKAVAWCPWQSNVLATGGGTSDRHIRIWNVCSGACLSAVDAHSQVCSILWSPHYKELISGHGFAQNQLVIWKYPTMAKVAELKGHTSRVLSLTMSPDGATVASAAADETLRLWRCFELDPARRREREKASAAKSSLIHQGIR
T1 sequence (O43683 1-409, chain 1 of 2): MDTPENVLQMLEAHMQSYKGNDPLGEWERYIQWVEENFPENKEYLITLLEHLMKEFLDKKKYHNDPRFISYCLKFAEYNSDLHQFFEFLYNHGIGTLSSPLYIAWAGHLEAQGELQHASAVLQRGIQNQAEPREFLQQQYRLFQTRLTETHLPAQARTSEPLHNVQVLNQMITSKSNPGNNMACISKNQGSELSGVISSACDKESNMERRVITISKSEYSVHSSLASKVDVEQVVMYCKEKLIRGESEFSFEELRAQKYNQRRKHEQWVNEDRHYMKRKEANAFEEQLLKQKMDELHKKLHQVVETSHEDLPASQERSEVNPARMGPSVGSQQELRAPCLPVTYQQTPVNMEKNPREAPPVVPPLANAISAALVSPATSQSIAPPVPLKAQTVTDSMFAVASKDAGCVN
T1 sequence (O43684 whole entry, chain 2 of 2): as the sequence (O43684 whole entry, chain 2 of 2) above
Sequence of Bub3 (O43684 whole entry): as the sequence (O43684 whole entry, chain 2 of 2) above
Sequence of Mad2 (Q13257 whole entry): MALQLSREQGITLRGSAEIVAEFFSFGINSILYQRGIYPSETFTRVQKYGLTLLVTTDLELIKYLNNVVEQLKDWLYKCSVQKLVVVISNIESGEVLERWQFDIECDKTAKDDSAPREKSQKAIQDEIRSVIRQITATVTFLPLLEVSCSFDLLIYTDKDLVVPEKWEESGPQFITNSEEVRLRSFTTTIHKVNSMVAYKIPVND

Row | Molecule | ratio to parent [1] | ratio to parent (Mad2) | ratio to parent (Cdc20) | ratio to parent (Cdc27) | ratio to parent (Apc7) | ratio to parent (Bub3) | binding result (H6-Bub1^1–409/Bub3) | binding result (H6-Bub1^209–409-MBP/Bub3)
1 | GFP-BubR1 wild type, full length (from UniProt O60566) B1-loop | 0.15 | 0.12 | 0.12 | 0.06 | 0.08 | 1.1 | – | –
2 | B1 | – | – | – | – | – | – | binds | binds
